What all share (experiment): EMSA
For orientation: A gel shift assay detects complexes by their altered migration in electrophoresis.

One data set concerns the target GATA4 (mouse, UniProt Q08369 1-441).
The next data set deals with DMRT1 (mouse, UniProt Q9QZ59 1-374).
Data set [1] addresses T1, SOX9 (UniProt P48436 1-509).
In data set [2] the target is T1, SOX9. The source holds these as a separate data set.

Consider three molecules from paper PMC5499551.

Where two headings read alike, the source gives them in different places.

Sequence of DMRT1 (Q9QZ59 whole entry): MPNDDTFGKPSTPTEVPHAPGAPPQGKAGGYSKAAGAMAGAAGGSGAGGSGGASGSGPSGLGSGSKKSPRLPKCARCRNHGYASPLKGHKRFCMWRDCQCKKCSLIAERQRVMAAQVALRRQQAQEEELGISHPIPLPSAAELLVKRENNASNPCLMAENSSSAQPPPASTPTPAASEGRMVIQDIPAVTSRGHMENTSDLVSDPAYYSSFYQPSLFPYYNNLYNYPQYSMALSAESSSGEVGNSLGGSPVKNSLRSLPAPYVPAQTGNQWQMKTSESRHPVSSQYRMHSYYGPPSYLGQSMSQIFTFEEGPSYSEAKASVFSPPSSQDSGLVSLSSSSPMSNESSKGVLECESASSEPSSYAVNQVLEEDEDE
Sequence of GATA4 (Q08369 whole entry): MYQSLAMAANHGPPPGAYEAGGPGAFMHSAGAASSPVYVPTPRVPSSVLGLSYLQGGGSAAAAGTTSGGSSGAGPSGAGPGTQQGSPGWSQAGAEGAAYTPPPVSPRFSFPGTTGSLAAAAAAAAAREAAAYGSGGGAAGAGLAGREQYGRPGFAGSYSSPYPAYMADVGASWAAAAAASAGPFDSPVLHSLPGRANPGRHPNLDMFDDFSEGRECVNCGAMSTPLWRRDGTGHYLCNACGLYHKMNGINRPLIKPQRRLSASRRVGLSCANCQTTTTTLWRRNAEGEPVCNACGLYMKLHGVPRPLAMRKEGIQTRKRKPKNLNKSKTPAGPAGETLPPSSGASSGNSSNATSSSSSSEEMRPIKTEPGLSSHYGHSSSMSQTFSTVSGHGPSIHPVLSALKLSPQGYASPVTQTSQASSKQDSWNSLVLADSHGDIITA
T1 sequence (P48436 whole entry): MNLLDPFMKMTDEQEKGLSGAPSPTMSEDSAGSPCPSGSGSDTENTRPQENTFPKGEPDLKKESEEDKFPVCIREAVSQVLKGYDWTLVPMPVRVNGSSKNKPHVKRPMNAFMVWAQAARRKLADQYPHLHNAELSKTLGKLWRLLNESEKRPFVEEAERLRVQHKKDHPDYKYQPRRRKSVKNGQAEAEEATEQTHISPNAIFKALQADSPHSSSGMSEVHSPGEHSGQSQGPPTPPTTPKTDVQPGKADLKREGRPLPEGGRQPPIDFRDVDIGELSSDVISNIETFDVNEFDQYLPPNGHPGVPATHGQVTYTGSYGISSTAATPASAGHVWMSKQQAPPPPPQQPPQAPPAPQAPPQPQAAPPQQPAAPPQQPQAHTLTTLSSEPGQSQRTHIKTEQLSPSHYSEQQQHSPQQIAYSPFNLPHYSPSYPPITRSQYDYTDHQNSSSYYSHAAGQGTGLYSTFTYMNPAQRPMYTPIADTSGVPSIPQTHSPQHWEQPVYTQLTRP

B1: Mrpl45 (dsDNA)
DNA 1: GGGTTTTTTTCACCGATTGTAAATAAGGTGTAACAATGTGTTAAGGAACCAGGA
DNA 2: TCCTGGTTCCTTAACACATTGTTACACCTTATTTACAATCGGTGAAAAAAACCC
On to B1, for which the binding result with GATA4, in the data set with DMRT1 and with SOX9 [1] was “binds” throughout.

B2: Lats2 (dsDNA)
DNA 1: GGCCGAGCGGGACATTCGCTACATTGTTGGCATTCCACGGGCG
DNA 2: CGCCCGTGGAATGCCAACAATGTAGCGAATGTCCCGCTCGGCC
Turning to B2, the binding result with GATA4 was “no binding”; with DMRT1, “binds”; in the data set with SOX9 [2], “binds”.

B3: Lmo4 (dsDNA)
DNA 1: GGCATCTCCCATTATTGTTCCAAATCTCATTTCATTTTGAA
DNA 2: TTCAAAATGAAATGAGATTTGGAACAATAATGGGAGATGCC
As to B3, the binding result in the data set with GATA4 is “binds”; in the data set with DMRT1, “no binding”; with SOX9 [1], “binds”.
